Assay [1] deals with tooth pellicle (thin film derived from salivary glycoproteins, formed in a human mouth) (human). Kind of assay: phage ELISA on pellicle-coated HAP disks, anti-M13-HRP; no-phage control 0.218.
Assay [2] has the same target. Kind of assay: phage ELISA on pellicle-coated bovine enamel, anti-M13-HRP, normalized to internal control.

These results are taken from patent US20100247589A1.

TPCAPASFNPHCSR [Pell 18] displayed an O.D.450 in assay [1] of 0.416.
ELDHDSRHYMNGLQRKVT [DenP15] had an O.D.450 (normalized) in assay [2] of 1.11.
Take AHPESLGIKYALDGNSDPHA [Pell 1]: the O.D.450 in assay [1] is 0.739.
In turn, NGNNHTDIPNRSSYTGGSFA [DenP1] returned an O.D.450 (normalized) in assay [2] of 1.
In the case of DECMHGSDVEFCTS [Pell 4], the O.D.450 in assay [1] was found to be 0.664.
Still for that read-out and setting: then NPTDHIPANSTNSRVSKGNT [Pell 15], with 0.567.
As for KAPIANMLQPHSYQYSVA [DenP18], the O.D.450 (normalized) in assay [2] was 1.14.
With EFPYYNDNPPNPERHTLR [DenP7], the O.D.450 (normalized) in assay [2] was 1.5.
Same read-out and setting: then SEARARTFNDHTTPMPII [DenP14], with 2.5.
Still for that read-out and setting: then DTIHPNKMKSPSSPL [DenP26], with 1.04; and QVPDYLSPTHQKKAFLEIPT [DenP29], with 0.976; and HKNAIQPVNDATTLDTTM [DenP9], with 1.36.
The same measure, in the same setting: next, HDPNHLTHQARTIYRNANHT [DenP23]: 1.24.
In assay [2], GPQHVLMQDTHQGYAFDN [DenP16] displayed an O.D.450 (normalized) of 2.19.
On the same count and under the same terms, next, VNPNWVETQALHQPPGNT [DenP20]: 1.3; AVVPADLNDHANHLS [DenP10]: 1.62.
Consider NNTSADNPPETDSKHHLSMS [Pell 12], for which the O.D.450 in assay [1] amounted to 0.521.
In the case of ASVSNYPPIHHLATSNTTVN [Pell 2], the O.D.450 in assay [1] came out at 0.75.
On the same count and under the same terms, then NNTWPEGAGHTMPSTNIRQA [Pell 13], with 0.598; and NGPDMVQSVGKHKNS [Pell 10], with 0.729.
TTGSSSQADTSASMSIVPAH [DenP17] showed an O.D.450 (normalized) in assay [2] of 0.971.
Turning to NPTDSTHMMHARNHE [Pell 16], in assay [1], the O.D.450 is 0.578.
Consider TYQGVPSWPAVIDDAIRR [DenP19], for which, in assay [2], the O.D.450 (normalized) is 1.05.
For WCTDFCTRSTPTSTSRSTTS [Pell 20], in assay [1], the O.D.450 amounted to 0.715.
The molecule VEPATKNMREARSSTQMRRI [DenP4] gave an O.D.450 (normalized) in assay [2] of 1.42.
Same read-out and setting: next, HKNENIMQYNVNDRWHITPA [DenP32]: 1.44.
In turn, DECMEPLNAAHCWR [Pell 3] had an O.D.450 in assay [1] of 0.49.
DLCSMQMMNTGCHY [Pell 5] returned an O.D.450 in assay [1] of 0.83.
Still for that read-out and setting: next, QHCITERLHPPCTK [Pell 17]: 0.614; NGPEVRQIPANFEKL [Pell 11]: 0.607.
TNDLHANPFTGTYIAPDPTS [DenP30] came in with an O.D.450 (normalized) in assay [2] of 1.08.
GMPTRYYHNTPPHLTPKF [DenP8] registered an O.D.450 (normalized) in assay [2] of 1.18.
The same measure, in the same setting: then APPTYQTASYPHNLPSKRKM [DenP28], with 1.2; and DHNNRQHAVEVRENKTHTAR [DenP21], with 0.728.
Same read-out and setting: then QAAQVHMMQHSRPTT [DenP13], with 0.845.
In assay [1], DLCSSPSTWGSCIR [Pell 6] had an O.D.450 of 0.735.
Molecule TMTNHVYNSYTEKHSSTHRS [DenP2] registered an O.D.450 (normalized) in assay [2] of 1.95.
The molecule NPTATPHMKDPMHSNAHSSA [Pell 14] yielded an O.D.450 in assay [1] of 0.7.
In assay [2], DLGTFPNRTLKMAAH [DenP11] returned an O.D.450 (normalized) of 1.66.
The same measure, in the same setting: next, IYPNESMSTSNVRGPYHP [DenP22]: 1.42; FDGIGLGTATRHQNR [DenP12]: 2.08.
On the same count and under the same terms, next, IPWWNIRAPLNAGGG [Control (SEQ ID NO: 95)]: 1.
On to TPCATYPHFSGCRA [Pell 19], for which the O.D.450 in assay [1] was 0.731.
In turn, SNATMYNIQSHSHHQ [DenP24] showed an O.D.450 (normalized) in assay [2] of 0.979.
Same read-out and setting: next, ANELSTYAQTNPGSG [DenP25]: 0.909; YLLPKDQTTAPQVTPIVQHK [DenP5]: 1.09.
